From the supplement of paper PMC11196671

How the values were obtained:
[1] = BHET released, HPLC; higher = more BHET released; extreme values may be limits of the assay; details: 24 h
Procedure: (§1)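 Purified PET hydrolases, 2.5 ug enzyme on 3.5 mg amorphous PET film (aFilm) or crystalline PET powder (cryPow) in 0.5 mL of 50 mM buffer (NaCitrate pH 4.5/5.5, NaPhosphate 6.5/7.5, glycine 8.5/9.5) at 60 or 70 C with shaking for 24 h. Total aromatic product by UV-Vis (260/280 nm, blank-subtracted, normalised per mg enzyme) and individual TPA, MHET, BHET concentrations by UHPLC-DAD at 240 nm; duplicate reactions.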

[2] = MHET released, HPLC; higher = more MHET released; extreme values may be limits of the assay; details: 24 h
Procedure: as §1

[3] = terephthalic acid (TPA) released, HPLC; higher = more TPA released; extreme values may be limits of the assay; details: 24 h
Procedure: as §1

[4] = PET hydrolysis product formed (TPA+MHET+BHET, UV-Vis) per mg enzyme (mmol/mg enzyme); higher = more PET depolymerisation activity; extreme values may be limits of the assay; details: 2 h
Procedure: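 Purified PET hydrolases (His-SUMO cleaved, E. coli C41(DE3) small-scale expression), 2.5 ug enzyme on 3.5 mg amorphous PET film (aFilm) or crystalline PET powder (cryPow) in 0.5 mL of 50 mM buffer (NaCitrate pH 4.5/5.5, NaPhosphate 6.5/7.5, glycine 8.5/9.5) at 60 or 70 C with shaking for 2 h. Soluble aromatic products (TPA+MHET+BHET) were quantified by UV-Vis at 260/280 nm, blank-subtracted against the no-enzyme control, and normalised per mg enzyme; duplicate reactions.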

QDNPYERGPDPTEDSIEAIRGPFSVATERVSSFASGFGGGTIYYPRETDEGTFGAVAVAPGFTASQGSMSWYGERVASHGFIVFTIDTNTRLDAPGQRGRQLLAALDYLVERSDRKVRERLDPNRLAVMGHSMGGGGSLEATVMRPSLKASIPLTPWHLDKTWGQVQVPTFIIGAELDTIAPVSTHAKPFYESLPSSLPKAYMELCGATHFAPNIPNTTIAKYVISWLKRFVDEDTRYSQFLCPNPTDRAICEYRSTCPY [Cut190*SS]
Details	BHET released, [1] [mM]	MHET released, [2] [mM]	PET hydrolysis product formed, [4]	terephthalic acid, [3] [mM]
PET substrate: aFilm, 60 °C, pH 4.5	0	0	0	0
PET substrate: aFilm, 60 °C, pH 5.5	0	0.00789	0	0
PET substrate: aFilm, 60 °C, pH 6.5	0.00205	0.04	0	0.00808
PET substrate: aFilm, 60 °C, pH 7.5	0.0117	0.208	0.00672	0.0544
PET substrate: aFilm, 60 °C, pH 8.5	0	0.0945	0	0.0241
PET substrate: aFilm, 60 °C, pH 9.5	0	0.155	0.0106	0.319
PET substrate: aFilm, 70 °C, pH 4.5	0	0	0	0
PET substrate: aFilm, 70 °C, pH 5.5	0	0	0	0
PET substrate: aFilm, 70 °C, pH 6.5	0	0	0	0
PET substrate: aFilm, 70 °C, pH 7.5	0.00861	0.234	0.00376	0.142
PET substrate: aFilm, 70 °C, pH 8.5	0	0.00747	0	0
PET substrate: aFilm, 70 °C, pH 9.5	0	0.0894	0.0215	0.477
PET substrate: cryPow, 60 °C, pH 4.5	0	0	0	0
PET substrate: cryPow, 60 °C, pH 5.5	0.00623	0.0526	0	0.0115
PET substrate: cryPow, 60 °C, pH 6.5	0.00767	0.1	0.0096	0.016
PET substrate: cryPow, 60 °C, pH 7.5	0.0058	0.202	0.0258	0.0676
PET substrate: cryPow, 60 °C, pH 8.5	0	0.171	0.0105	0.04
PET substrate: cryPow, 60 °C, pH 9.5	0	0.11	0.0109	0.302
PET substrate: cryPow, 70 °C, pH 4.5	0	0	0	0
PET substrate: cryPow, 70 °C, pH 5.5	0	0.00708	0	0
PET substrate: cryPow, 70 °C, pH 6.5	0	0.0193	0	0.00353
PET substrate: cryPow, 70 °C, pH 7.5	0	0.0639	0.00904	0.0546
PET substrate: cryPow, 70 °C, pH 8.5	0	0.02402	0	0.01301
PET substrate: cryPow, 70 °C, pH 9.5	0	0.00359	0.00521	0.0846
